Measurements published in PMC3764169.

Biological target: αVβ3 integrin (human (endogenous in THP-1)) (UniProt P06756)
Chain of UniProt P06756 (P06756 31-1048, chain 1 of 2): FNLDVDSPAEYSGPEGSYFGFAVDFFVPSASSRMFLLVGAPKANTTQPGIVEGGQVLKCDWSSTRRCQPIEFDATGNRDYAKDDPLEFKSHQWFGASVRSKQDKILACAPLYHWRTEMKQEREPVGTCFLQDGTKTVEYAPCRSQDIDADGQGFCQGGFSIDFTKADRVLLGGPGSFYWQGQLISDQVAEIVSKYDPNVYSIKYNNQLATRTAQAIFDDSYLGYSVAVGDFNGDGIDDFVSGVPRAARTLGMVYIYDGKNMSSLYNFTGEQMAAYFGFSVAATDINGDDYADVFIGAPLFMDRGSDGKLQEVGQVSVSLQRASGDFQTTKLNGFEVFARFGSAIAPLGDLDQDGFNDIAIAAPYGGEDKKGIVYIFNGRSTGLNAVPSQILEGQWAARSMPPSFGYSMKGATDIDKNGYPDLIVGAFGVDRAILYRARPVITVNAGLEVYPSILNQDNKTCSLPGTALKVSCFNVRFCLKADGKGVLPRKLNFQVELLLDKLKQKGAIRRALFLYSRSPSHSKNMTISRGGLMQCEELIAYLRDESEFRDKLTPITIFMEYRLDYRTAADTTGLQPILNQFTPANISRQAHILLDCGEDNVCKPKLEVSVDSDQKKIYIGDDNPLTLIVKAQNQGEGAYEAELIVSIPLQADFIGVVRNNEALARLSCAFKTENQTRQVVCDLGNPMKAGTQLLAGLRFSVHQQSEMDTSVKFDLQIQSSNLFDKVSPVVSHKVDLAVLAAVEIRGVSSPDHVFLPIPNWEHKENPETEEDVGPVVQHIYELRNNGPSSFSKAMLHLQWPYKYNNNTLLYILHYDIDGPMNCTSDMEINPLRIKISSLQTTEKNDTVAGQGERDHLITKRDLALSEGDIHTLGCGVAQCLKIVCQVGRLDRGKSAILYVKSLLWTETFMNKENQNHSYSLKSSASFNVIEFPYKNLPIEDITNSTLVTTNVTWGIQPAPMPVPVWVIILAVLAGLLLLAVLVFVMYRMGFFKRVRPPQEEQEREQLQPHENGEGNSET
Chain of UniProt P06756 (P05106 27-788, chain 2 of 2, further chain): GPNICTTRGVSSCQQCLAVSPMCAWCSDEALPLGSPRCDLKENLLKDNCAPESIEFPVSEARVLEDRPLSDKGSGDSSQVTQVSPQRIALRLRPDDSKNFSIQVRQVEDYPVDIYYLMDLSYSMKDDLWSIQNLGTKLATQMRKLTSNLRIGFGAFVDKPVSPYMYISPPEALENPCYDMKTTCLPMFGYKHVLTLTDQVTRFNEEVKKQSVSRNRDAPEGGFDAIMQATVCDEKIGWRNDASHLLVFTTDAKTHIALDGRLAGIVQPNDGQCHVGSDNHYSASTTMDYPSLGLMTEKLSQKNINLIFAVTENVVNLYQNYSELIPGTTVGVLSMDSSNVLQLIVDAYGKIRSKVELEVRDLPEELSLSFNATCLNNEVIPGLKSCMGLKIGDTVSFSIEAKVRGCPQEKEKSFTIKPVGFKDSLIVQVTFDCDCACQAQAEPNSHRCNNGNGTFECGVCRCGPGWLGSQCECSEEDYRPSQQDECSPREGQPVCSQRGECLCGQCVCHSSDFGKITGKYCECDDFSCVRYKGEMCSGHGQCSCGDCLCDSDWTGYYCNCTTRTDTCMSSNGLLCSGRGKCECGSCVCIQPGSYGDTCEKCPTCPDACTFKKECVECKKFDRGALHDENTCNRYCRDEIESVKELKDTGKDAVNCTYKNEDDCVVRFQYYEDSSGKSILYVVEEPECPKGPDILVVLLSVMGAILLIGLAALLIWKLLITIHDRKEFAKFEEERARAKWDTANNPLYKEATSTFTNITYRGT

- decrease in free intracellular Ca^2+ (Fluo-4, live-cell confocal imaging) in LPS-induced THP-1 macrophages after lunasin (1 µM), over 6.67 min (400 frames); resurgence after 30 min: 34.6%
Substance: Lunasin (peptide)
